According to article PMC8660799, “Cryo-EM reveals unique structural features of the FhuCDB Escherichia coli ferrichrome importer” (Communications Biology, 2021):

How the values were obtained:
[1] = target: T1, FhuCB with FhuB Q507A, T510A (Escherichia coli, UniProt P07821 1-265; P06972 1-660, Q507A | T510A, red-tris-NTA 2nd generation dye on the His-tag); test: MST; 40 nM FhuCB (wild type or FhuB mutant) in detergent, His-tag labelled with red-tris-NTA 2nd generation dye; serial dilution of 1.6 μM FhuD with substrate ferrichrome; with ATP-Mg; Monolith NT.115pico, 20% LED power, medium MST power; details: both partners purified
T1 construct: FhuC, ATPase subunit, Escherichia coli; as in Dm2; FhuB, membrane subunit, Escherichia coli, 660 residues; Mutant made on the FhuCB-pET15b construct by direct mutagenesis; also called Q507T510; source: E. coli BL21(DE3) C43, purified (TALON, Superose 6 gel filtration) in LMNG; not shown: His-tag, N-terminal, kept; copies: 2 + 1
T1 sequence (looked up) 1: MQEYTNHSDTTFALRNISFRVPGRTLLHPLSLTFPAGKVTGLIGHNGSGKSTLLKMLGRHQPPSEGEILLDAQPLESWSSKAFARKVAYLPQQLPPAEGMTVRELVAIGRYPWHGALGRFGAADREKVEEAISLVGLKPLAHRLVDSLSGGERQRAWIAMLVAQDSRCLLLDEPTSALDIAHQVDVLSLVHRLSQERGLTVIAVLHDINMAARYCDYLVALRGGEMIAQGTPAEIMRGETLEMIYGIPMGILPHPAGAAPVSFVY
T1 sequence (looked up) 2: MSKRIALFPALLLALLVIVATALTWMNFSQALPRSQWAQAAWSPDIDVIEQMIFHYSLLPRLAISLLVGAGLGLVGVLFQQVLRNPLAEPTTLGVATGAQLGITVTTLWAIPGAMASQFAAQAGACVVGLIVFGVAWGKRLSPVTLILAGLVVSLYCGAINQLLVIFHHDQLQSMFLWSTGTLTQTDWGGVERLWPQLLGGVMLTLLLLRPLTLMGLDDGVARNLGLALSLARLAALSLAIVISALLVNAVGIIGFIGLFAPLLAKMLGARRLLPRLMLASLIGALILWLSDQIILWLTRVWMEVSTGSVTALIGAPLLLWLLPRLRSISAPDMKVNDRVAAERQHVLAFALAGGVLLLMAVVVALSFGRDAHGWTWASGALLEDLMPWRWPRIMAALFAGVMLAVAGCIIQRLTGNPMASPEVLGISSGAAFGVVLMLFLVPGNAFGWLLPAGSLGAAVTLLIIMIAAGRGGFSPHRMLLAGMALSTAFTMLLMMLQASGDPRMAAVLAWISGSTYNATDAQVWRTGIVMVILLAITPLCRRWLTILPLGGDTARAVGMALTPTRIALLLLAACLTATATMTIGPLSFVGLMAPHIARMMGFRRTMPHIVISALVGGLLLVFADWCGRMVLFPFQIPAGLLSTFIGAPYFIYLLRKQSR

FhuCB with FhuB Q636A = target: T2, FhuCB with FhuB Q636A (Escherichia coli, UniProt P07821 1-265; P06972 1-660, Q636A, red-tris-NTA 2nd generation dye on the His-tag); test: as above; details: both partners purified
T2 construct: FhuC, ATPase subunit, Escherichia coli; as in Dm2; FhuB, membrane subunit, Escherichia coli, 660 residues; Mutant made on the FhuCB-pET15b construct by direct mutagenesis; source: E. coli BL21(DE3) C43, purified (TALON, Superose 6 gel filtration) in LMNG; not shown: His-tag, N-terminal, kept; copies: 2 + 1
T2 sequence (looked up) 1: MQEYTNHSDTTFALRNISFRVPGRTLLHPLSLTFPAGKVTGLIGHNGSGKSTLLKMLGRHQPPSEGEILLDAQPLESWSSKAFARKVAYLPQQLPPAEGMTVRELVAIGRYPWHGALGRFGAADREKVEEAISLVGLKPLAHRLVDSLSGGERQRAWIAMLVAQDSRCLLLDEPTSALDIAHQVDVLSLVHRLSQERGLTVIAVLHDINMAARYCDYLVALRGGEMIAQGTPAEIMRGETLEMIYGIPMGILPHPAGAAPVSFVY
T2 sequence (looked up) 2: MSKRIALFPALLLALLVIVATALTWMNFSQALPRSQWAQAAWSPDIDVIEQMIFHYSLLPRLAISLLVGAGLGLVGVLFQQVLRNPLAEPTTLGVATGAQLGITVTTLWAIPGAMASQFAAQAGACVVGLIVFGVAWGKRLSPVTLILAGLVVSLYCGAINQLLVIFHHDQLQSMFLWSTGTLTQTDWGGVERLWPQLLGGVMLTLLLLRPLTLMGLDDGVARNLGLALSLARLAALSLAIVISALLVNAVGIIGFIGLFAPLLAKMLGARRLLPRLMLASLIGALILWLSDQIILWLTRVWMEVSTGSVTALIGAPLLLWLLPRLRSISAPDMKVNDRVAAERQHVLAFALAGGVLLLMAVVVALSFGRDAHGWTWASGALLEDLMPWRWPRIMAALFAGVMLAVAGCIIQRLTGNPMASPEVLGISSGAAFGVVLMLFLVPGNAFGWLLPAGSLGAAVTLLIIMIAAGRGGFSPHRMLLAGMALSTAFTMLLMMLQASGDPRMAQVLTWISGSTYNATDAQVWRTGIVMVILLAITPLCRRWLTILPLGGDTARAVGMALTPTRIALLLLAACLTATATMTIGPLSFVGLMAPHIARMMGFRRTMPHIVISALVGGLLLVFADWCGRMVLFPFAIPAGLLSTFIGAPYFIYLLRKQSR

- Kd [1]: 79.2 nM
- Kd (FhuCB with FhuB Q636A): 90.2 nM
B1: FhuD (natural protein, Escherichia coli)
chain: AAIDPNRIVALEWLPVELLLALGIVPYGVADTINYRLWVSEPPLPDSVIDVGLRTEPNLELLTEMKPSFMVWSAGYGPSPEMLARIAPGRGFNFSDGKQPLAMARKSLTEMADLLNLQSAAETHLAQYEDFIRSMKPRFVKRGARPLLLTTLIDPRHMLVFGPNSLFQEILDEYGIPNAWQGETNFWGSTAVSIDRLAAYKDVDVLCFDHDNSKDMDALMATPLWQAMPFVRAGRFQRVPAVWFYGATLSAMHFVRVLDNAIGGKA
notes: In 'FhuD-ferrichrome' the protein was loaded with the small molecule ferrichrome; also called FhuD-ferrichrome (when loaded with ferrichrome)
